Drawing on US20040081647A1, this text covers survival of L929 cells for one molecule.

The experiment has as its target recombinant human TNFα (RDI) (human) (UniProt P01375). The experiment is described as follows: cell-based or functional assay.

Sequence of recombinant human TNFα (RDI) (human) (P01375 77-233 limits assumed): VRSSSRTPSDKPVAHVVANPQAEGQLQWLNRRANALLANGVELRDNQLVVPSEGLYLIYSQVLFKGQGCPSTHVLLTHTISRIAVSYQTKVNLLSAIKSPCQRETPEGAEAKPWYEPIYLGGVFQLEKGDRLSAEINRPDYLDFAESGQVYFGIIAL

B1: MMP7 (enzyme, UniProt P09237 95-267, looked up, species assumed)
Matrilysin: YSLFPNSPKWTSKVVTYRIVSYTRDLPHITVDRLVSKALNMWGKEIPLHFRKVVWGTADIMIGFARGAHGDSYPFDGPGNTLAHAFAPGTGLGGDAHFDEDERWTDGSSLGINFLYAATHELGHSLGMGHSSDPNAVMYPTYGNGDPQNFKLSQDDIKGIQKLYGKRSNSRKK
Turning to B1, the survival of L929 cells at the dilution equivalent to ˜600 pg/ml TNFα after digestion was 40 % survival.
